We go through two molecules from publication PMC11320721 (Nature structural & molecular biology, 2024).

Assay [1] deals with T1, PZP domain of JADE1 (JADE1PZP), wild type (human, UniProt Q6IE81 201-373). The experiment in a line: other fluorescence titration.
Another assay deals with E215K mutant of JADE1PZP (human, UniProt Q6IE81 201-373, E215K). The experiment in a line: other fluorescence titration.
For assay [2], the target named is T1, PZP domain of JADE1 (JADE1PZP), wild …. Kind of assay: NMR titration.

No end group written: not given here. Me3 = trimethyl (lysine)

T1 sequence (Q6IE81 201-373): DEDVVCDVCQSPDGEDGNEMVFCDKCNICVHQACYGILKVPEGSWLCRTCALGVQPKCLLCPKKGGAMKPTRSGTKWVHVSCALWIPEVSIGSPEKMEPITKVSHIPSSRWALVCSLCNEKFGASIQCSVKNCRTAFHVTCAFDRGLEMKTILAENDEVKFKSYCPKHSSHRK
Chain of E215K mutant of JADE1PZP (Q6IE81 201-373 E215K): as the sequence (Q6IE81 201-373) above, with E15K counted along it

For the molecule ARTKQTARKSTG (peptide, UniProt P68431 2-13, looked up) [H3_(1–12) peptide (residues 1–12 of H3)], in assay [1], the Kd came to 0.9 µM. Moreover, the “fold decrease in binding affinity against wild type JADE1PZP” value with E215K mutant of JADE1PZP was found to be 3 fold.
In the case of ARTK(Me3)QTARKSTG (peptide, UniProt P68431 2-13, looked up) [H3K4me3_(1–12) peptide], in assay [2], the affinity, expressed as Kd, was 3000 µM.

As usually defined, the Kd is the free concentration of one partner at which half of the binding sites on the other are occupied at equilibrium, for simple one-to-one binding.
